# Test results published in patent publication US20160263235A1 (ANGIOCHEM, published 2016).
# Square brackets hold non-standard residues; d marks the D form.
# B1: Ac-Lys-[D-Tyr^11]NT(8-13) (peptide)
# peptide: Ac-KRRP[dY]IL-OH
# SMILES: CC[C@H](C)[C@H](NC(=O)[C@@H](Cc1ccc(O)cc1)NC(=O)[C@@H]1CCCN1C(=O)[C@H](CCCNC(=N)N)NC(=O)[C@H](CCCNC(=N)N)NC(=O)[C@H](CCCCN)NC(C)=O)C(=O)N[C@@H](CC(C)C)C(=O)O
# notes: also called AcLysNT(8-13)D-tyr11; AcLysNT(8-13)(D-Tyr11)
# Legend:
# [1] = target: T1, NT receptor NTSR1 (high affinity NTSR1 receptor) on HT29 cells (human (HT29 is stated to be a human …, UniProt P30989 1-418)); assay: competitive displacement of [3H]-NT from HT29 cells expressing NTSR1
# T1 construct: whole, on cells; Endogenous receptor on HT29 cells
# T1 sequence (P30989 whole entry): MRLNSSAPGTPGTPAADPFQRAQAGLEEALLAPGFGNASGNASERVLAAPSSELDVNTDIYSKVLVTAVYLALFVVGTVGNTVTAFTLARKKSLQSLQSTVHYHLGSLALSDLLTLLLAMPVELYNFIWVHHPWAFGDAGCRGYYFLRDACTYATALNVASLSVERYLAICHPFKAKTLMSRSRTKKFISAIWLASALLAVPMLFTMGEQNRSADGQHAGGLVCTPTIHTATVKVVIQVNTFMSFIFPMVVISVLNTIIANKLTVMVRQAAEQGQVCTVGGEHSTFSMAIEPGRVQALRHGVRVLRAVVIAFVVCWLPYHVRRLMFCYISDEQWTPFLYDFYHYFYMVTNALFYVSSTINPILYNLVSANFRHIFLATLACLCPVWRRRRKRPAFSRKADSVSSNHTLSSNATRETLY
# [2] = target: T1, NT receptor NTSR1 (high affinity NTSR1 …); assay: as above; remark: listed apart in the source
binder,measurement,setting,value
B1,IC50,[1],5.39 µM
same,fold weaker binding than native NT,[2],> 1000 fold
